Assay results reported in paper PMC5207764.

Biological target: Vibrio cholerae major pilin TcpA with a His181Ala substitution, assembled in purified TCP^H181A pili (V. cholerae)

B1: Vibrio cholerae minor pilin TcpB (natural protein)
chain: MRKYQQGVGLLEAILASAVLGMALVAAGSYYKREAELMIKSSNAFDVIELSSQIQRYASLSKINNRTNPILKDNKAKEFKDADLKWLKLENCLTAGDVPTTGNNNDLQDQFIACDADYRKGDLSYFGSQFEFSTYVHPSNPEIQRQIKQVVSYFQYRGMERAFIGDAAGYVISEAKKKGFSAQDYRIVLIEPDRVGYFESNVISYEEFIENPSARENFLLKATKDRTLALAVSLAQTGEIAMQRDGSVAFLEDTELCWDTAAGSAKSCLSVRYDTVGNKTELDLKQIDVVSAKGLSFESDGKTKTPVVSTYETFQDGGRAKTINAIECPTGLNNRFAAVVSSFSTAGQNANFSSESAKDSQGTTQKDGSKGPHALLSGISLNWTLTNKVWDVTASIGIESGILPTSGIDSGSLLRNPKSLSFIAFQWCEN
molar ratio TcpA:TcpB in purified pili (TcpA per TcpB): 7000
